Publication PMC3705450
Changes are numbered by the printed parent chain. Where two headings read alike, the source gives them in different places.

Legend:
Experiment in all cases: EMSA
[1] = target: T1, LuxR (Vibrio harveyi, UniProt P21308 1-205)
T1 sequence: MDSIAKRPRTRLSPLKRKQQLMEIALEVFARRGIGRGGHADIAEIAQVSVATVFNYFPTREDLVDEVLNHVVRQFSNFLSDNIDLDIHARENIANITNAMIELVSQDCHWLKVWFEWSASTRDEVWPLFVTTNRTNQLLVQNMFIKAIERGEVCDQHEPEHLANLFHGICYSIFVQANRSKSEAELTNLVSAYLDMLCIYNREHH

[2] = target: T2, LuxR L139P (Vibrio harveyi, UniProt P21308 1-205, L139P)
T2 sequence: T1 sequence with L139P

[3] = target: T3, LuxR N55I (Vibrio harveyi, UniProt P21308 1-205, N55I)
T3 sequence: T1 sequence with N55I

[4] = target: T3, LuxR N55I; remark: listed apart in the source
[5] = target: T1, LuxR; remark: listed apart in the source
[6] = target: T4, LuxR T52M/I24V (Vibrio harveyi, UniProt P21308 1-205, T52M;I24V)
T4 sequence: T1 sequence with I24V, T52M

[7] = target: T1, LuxR; remark: listed apart in the source
[8] = target: T1, LuxR; remark: listed apart in the source
[9] = target: T1, LuxR; remark: listed apart in the source
[10] = target: T4, LuxR T52M/I24V; remark: listed apart in the source

B1: PluxC site 3 (dsDNA)
DNA 1: TTATTTAAATGATATAAATATAAATAACATCA
DNA 2: TGATGTTATTTATATTTATATCATTTAAATAA
[1]
  Kd: 0.6 nM

B2: PluxC site 2 (dsDNA)
DNA 1: ACTAATTATAAATAAATCAAACTATAATTAGA
DNA 2: TCTAATTATAGTTTGATTTATTTATAATTAGT
[2]
  binding result: binds
[1]
  Kd: 103 nM
[3]
  binding result: no binding

B3: PluxC site 1 (dsDNA)
DNA 1: TTACTTATTTATAGTGTTACAAATAACATTA
DNA 2: TAATGTTATTTGTAACACTATAAATAAGTAA
[2]
  binding result: binds
[4]
  binding result: binds
[5]
  binding result: binds
[6]
  binding result: no binding

B4: P05222 28 bp (dsDNA)
DNA 1: CTAGTACTGACAAAAAAGTTAATATTTT
DNA 2: AAAATATTAACTTTTTTGTCAGTACTAG
[7]
  binding result: binds

B5: P05222 site 31mer (dsDNA)
DNA 1: CTAGTACTGACAAAAAAGTTAATATTTTGTT
DNA 2: AACAAAATATTAACTTTTTTGTCAGTACTAG
[1]
  Kd: 0.7 nM
[6]
  Kd: 56.6 nM

B6: aphA promoter BS* randomized 31mer (dsDNA)
DNA 1: TTTACGTTACTTGTTGGTAAATTTTATATAT
DNA 2: ATATATAAAATTTACCAACAAGTAACGTAAA
[8]
  binding result: no binding

B7: P05222 site G to T + T to C (dsDNA)
DNA 1: GTGCAACAAAATATTGACTTTTTTGTCAGTAAGGATCCGGTGATTG
DNA 2: CAATCACCGGATCCTTACTGACAAAAAAGTCAATATTTTGTTGCAC
[9]
  binding result: binds
[10]
  binding result: binds
